Results as given in the supplement of paper PMC12042874.
± gives the uncertainty stated by the source.

Assay: amyloid nucleation score (Sup35N fusion, yeast selection) (log enrichment); library NNK2; higher = more nucleation; inactive = no reads after selection
Method in brief: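 Sup35N was fused to peptides of 20 random codons and expressed in psi-negative yeast, which were induced with 100 μM copper sulfate for 24 hours and then grown on medium lacking adenine and uracil for 7 days at 30°C. Plasmid inserts from input and output were sequenced on Illumina. The nucleation score is the DiMSum log enrichment of output over input reads, centred on the mode score of non-aggregating sequences. Sequences with under 100 input reads were left out, and random libraries had three technical output replicates.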

Row | Substance | amyloid nucleation score
1 | VELSHFCTGRNSYSRRWISM | 0.422 ± 0.65
2 | VEVKNRYRVRKLLCGLLRIR | 0.799 ± 0.74
3 | VEWKRRNRVRVSRCELWFCF | 3.93 ± 0.087
4 | VFARWFYAADGYIARLHVHT | 0.133 ± 0.5
5 | VFAWLIVGIWACLFGARIFW | -0.291 ± 0.4
6 | VFFRLMKPNFGLP | 0.199 ± 1.1
7 | VFFSESERYSGVKLGAVEDT | 0.189 ± 0.49
8 | VFGSYCGSVPRAAKFAMT | inactive
9 | VFIFLGLPLFPMITSIDLGY | 2.28 ± 0.13
10 | VFMCVGFLLYHMNSELGPRG | 2.88 ± 0.087
11 | VFNFVSFRFDDTVD | 6.987 ± 0.04
12 | VFRDLSIERFIRSYVNCDRG | inactive
13 | VFSDWMNCRYLMLRVCRVPR | 0.629 ± 0.56
14 | VFTILSCWGPYRCVVTRALL | inactive
15 | VFTISESHLCWQYHLQEFT | 4.76 ± 0.068
16 | VFVMKMPWQSLISNLIFTSM | 1.23 ± 0.2
17 | VFVWECGAIQSLLISYMNDM | -0.784 ± 0.53
18 | VGDVGMFFLSR | -0.668 ± 0.34
19 | VGFLYACYFRGTAVNETGYT | 1.15 ± 0.13
20 | VGGQNGCCWVVLNTSVPNSS | 6.645 ± 0.052
21 | VGGWGWGHCPQRRQHVSLPV | 0.825 ± 0.53
22 | VGLCSPWKHALFD | 3.33 ± 0.073
23 | VGNIGSSTC | -0.159 ± 0.45
24 | VGRIEGHFYRSDCRQTYLYQ | -0.785 ± 0.74
25 | VGRTVMKWACIVE | 4.878 ± 0.034

Row | Substance | amyloid nucleation score
26 | VGSFGLMKTYGVYCDNLLGR | inactive
27 | VGTAKYYFKGCLGTPRSNNL | inactive
28 | VHAVGHNSIGTRIRWVNGAA | 0.504 ± 0.33
29 | VHCDYVIELGPGWWVRNWGS | 0.42 ± 0.54
30 | VHGDMVFVCLTRCYRMF | 5.37 ± 0.065
31 | VHKYSSGMDYRSVVNLETLG | 0.192 ± 1
32 | VHLSLGGNIGLDGLQMVGVL | inactive
33 | VHMVPHCATW | 1.01 ± 0.38
34 | VHNQGFLFL | -0.07 ± 0.76
35 | VHSSVRQMSDY | 0.168 ± 0.4
36 | VHVYVGQKWSGGVLSLACYK | 1.09 ± 0.35
37 | VHYMHLSRLLKLHAEPLAFW | -0.02 ± 0.55
38 | VICLTIYRIDECLVCLLYVA | -0.405 ± 0.33
39 | VIHAFIMYSFGTKDV | 0.885 ± 0.32
40 | VIKGIEGVHGEKHVVYKVIC | 4.19 ± 0.065
41 | VINLRLLLIVLDGDIDYWCV | inactive
42 | VIPYISYLDIGTLVLLAFID | -0.373 ± 1
43 | VIRSSFFFSLELSSREEFGY | -0.817 ± 0.74
44 | VISEGRHKSFSL | -0.105 ± 1.1
45 | VITEADRLFHWIWKESLGEE | 4.858 ± 0.035
46 | VIVLIVLPEYAGVYSHWCWD | 0.772 ± 0.81
47 | VKFCIMSGSTKTINNYSQAR | 5.57 ± 0.09
48 | VKFFFTILVPFLIFVS | inactive
49 | VKFTVFTQGQALIVPSGLL | 5.32 ± 0.084
50 | VKGVLPVLWMGFNKQHFINH | 0.602 ± 0.81

Row | Substance | amyloid nucleation score
51 | VKIWLCATCFMGEDVQETAQ | 7.055 ± 0.044
52 | VKLPITGIERLLEARQGDQW | 0.757 ± 0.39
53 | VKPMMTFIATYGRYNHQFLS | 0.861 ± 0.43
54 | VKREVLP | 0.117 ± 0.37
55 | VKTQSTVWSYR | 0.409 ± 0.28
56 | VKVHSIESGGLRPWCVGASV | 0.747 ± 0.3
57 | VKVLSLVFTGMVPMQYSRYA | 11.31 ± 0.049
58 | VKVQKINGGCVGFDLTWLCN | 8.863 ± 0.034
59 | VKYYQGIGVWSKVWIMFD | 0.7 ± 0.42
60 | VLALYYINSATLILFLIFKS | -1.16 ± 1.1
61 | VLATSFNFELGSGRTDLCRV | -0.805 ± 0.46
62 | VLAVSLIYALTP | inactive
63 | VLAYMQHFYRCQLCSVYVWG | 4.23 ± 0.11
64 | VLCLNFHGANVGWDLTTVYT | 1.02 ± 0.17
65 | VLEDNALVRYKDRGSSGWTV | 3.15 ± 0.059
66 | VLFCMSYKSARLEL | 6.08 ± 0.07
67 | VLFEFTC | 4.33 ± 0.05
68 | VLFSRFDSVWHVAIAVSARV | 0.671 ± 0.42
69 | VLGLKKSADYKS | -0.556 ± 0.74
70 | VLISVIWLRGRKLSVGWKKD | 0.593 ± 0.53
71 | VLLSGLY | inactive
72 | VLMINWMKVADFHEYFFICH | 6.3 ± 0.066
73 | VLNVNDFPNYGRRSCSTNSF | 3.18 ± 0.17
74 | VLRSTLDD | inactive
75 | VLSCRSLSAQFSMPAFMEQS | 0.972 ± 0.18

Row | Substance | amyloid nucleation score
76 | VLSDRKVY | 0.117 ± 0.79
77 | VLSHYIRLHKSLDLSYSNGV | -0.817 ± 0.61
78 | VLSWGFKGNAKPHHTDSLKG | 0.603 ± 0.22
79 | VLSYSVFTLRLATKIVP | -0.337 ± 1.1
80 | VLTMHPVRMFLDFFDDMMCY | inactive
81 | VLVCSANRLCNEPTIDRVLG | 4.14 ± 0.057
82 | VLVIGSIVYVCLSKDCCFNV | 9.543 ± 0.04
83 | VLVIVVTLRKWMTLNRRGVP | 0.155 ± 0.53
84 | VLVKL | -1.17 ± 0.48
85 | VLWHTGDMDMRVNRANELVS | 4.52 ± 0.046
86 | VLWMVQMIRPRSS | 7.02 ± 0.074
87 | VMATLHSLFVYRVDTFMFVE | 0.358 ± 0.51
88 | VMGDWAFSGFSNSNFS | -0.931 ± 0.44
89 | VMGIEMIFVVGLWQLEDVKG | 0.747 ± 0.23
90 | VMLHPSNSLALNCLT | -0.297 ± 0.28
91 | VMWDNVLSVLLVSGRVAFPM | 2.87 ± 0.099
92 | VNCPRIMGSIGRLFVVYTQM | 8.319 ± 0.06
93 | VNCYTIWVGNSSRSVHSINA | 5.27 ± 0.083
94 | VNFGI | -0.948 ± 0.64
95 | VNFPLVSGG | 0.114 ± 0.38
96 | VNFVLGVL | 0.086 ± 0.19
97 | VNIVVILFIVADIKWRRF | 3.15 ± 0.12
98 | VNLLFVVLCTMGSVSFKNSC | 7.768 ± 0.036
99 | VNLMVYASVIIGCAVARS | 7.06 ± 0.045
100 | VNMLEQKGRMSDETPCTATP | 0.107 ± 0.79

Row | Substance | amyloid nucleation score
101 | VNPCVWIRIYWRS | -0.014 ± 0.65
102 | VNQLRHYDLGINAHGQCRRL | 0.54 ± 0.8
103 | VNSNEVFIYPFTNLNFMML | 5.17 ± 0.087
104 | VNVIFHEYNVDAG | 4.02 ± 0.12
105 | VNYHLFVYAQWIVRKGFILL | -0.78 ± 0.44
106 | VNYYSFLLVFPGLQLTREIN | 6.38 ± 0.09
107 | VPFGQTAVLSEGDSEVGGMK | -0.228 ± 1.1
108 | VPGSMLLCIVQALKHANMAG | 0.417 ± 0.24
109 | VPHHPRVGSLPIHNSAAPYM | -0.683 ± 0.45
110 | VPICLSS | inactive
111 | VPSFYYRIVTYKRAE | 2.74 ± 0.094
112 | VQKTIVKLLAWLCFRGTAYC | 0.486 ± 0.8
113 | VQNMIDKVMKYWTYSICSTV | 1.27 ± 0.36
114 | VRCKVCPGRAYFDMRAPMQS | -0.512 ± 0.63
115 | VRCRMFMYVMSDLSFMS | 3.6 ± 0.047
116 | VRDNHNRSGQVRGGADLN | 0.822 ± 0.34
117 | VRFEELTEY | -0.171 ± 1
118 | VRFHVWDKGHRMI | 1.47 ± 0.18
119 | VRFWSLMCYACFSQSGSRVR | 3.91 ± 0.084
120 | VRFYDLFFKVGRQVYCLNNS | -0.694 ± 0.55
121 | VRGAVSLL | -0.64 ± 0.29
122 | VRGRVAHRRMGSTFVISAES | 0.266 ± 0.74
123 | VRLEPSHRVCRRVRLTSILR | inactive
124 | VRPRGTKRCFFGRNHWRSSF | 0.428 ± 0.66
